Data as given in article PMC11236980, “PARG is essential for Polθ-mediated DNA end-joining by removing repressive poly-ADP-ribose marks”.

Tests used:
[1] = target: PARP1 (UniProt P09874 1-1014); assay: EMSA; 25 nM PARP1; 25 mM Tris-HCl pH 7.5, 5 mM MgCl2, 30 mM NaCl, 5% glycerol, 0.1 mg/mL BSA, 1 mM DTT; PARylation 20 min 37 °C, binding at room temperature; 8% native PAGE 0.5x TBE; conditions: protein: recombinant; tags: N-terminal His; label: 5'-Cy3; single strand
[2] = target: Polθ-hel (human, UniProt O75417 1-894); assay: EMSA; PARP1 or NAD+ omitted; 40 nM protein, 10 nM DNA; 25 mM Tris-HCl pH 7.5, 5 mM MgCl2, 30 mM NaCl, 5% glycerol, 0.1 mg/mL BSA, 1 mM DTT; PARylation 20 min 37 °C, binding at room temperature; 8% native PAGE 0.5x TBE; conditions: protein: recombinant; label: 5'-Cy3; single strand
Chain of Polθ-hel (O75417 1-894): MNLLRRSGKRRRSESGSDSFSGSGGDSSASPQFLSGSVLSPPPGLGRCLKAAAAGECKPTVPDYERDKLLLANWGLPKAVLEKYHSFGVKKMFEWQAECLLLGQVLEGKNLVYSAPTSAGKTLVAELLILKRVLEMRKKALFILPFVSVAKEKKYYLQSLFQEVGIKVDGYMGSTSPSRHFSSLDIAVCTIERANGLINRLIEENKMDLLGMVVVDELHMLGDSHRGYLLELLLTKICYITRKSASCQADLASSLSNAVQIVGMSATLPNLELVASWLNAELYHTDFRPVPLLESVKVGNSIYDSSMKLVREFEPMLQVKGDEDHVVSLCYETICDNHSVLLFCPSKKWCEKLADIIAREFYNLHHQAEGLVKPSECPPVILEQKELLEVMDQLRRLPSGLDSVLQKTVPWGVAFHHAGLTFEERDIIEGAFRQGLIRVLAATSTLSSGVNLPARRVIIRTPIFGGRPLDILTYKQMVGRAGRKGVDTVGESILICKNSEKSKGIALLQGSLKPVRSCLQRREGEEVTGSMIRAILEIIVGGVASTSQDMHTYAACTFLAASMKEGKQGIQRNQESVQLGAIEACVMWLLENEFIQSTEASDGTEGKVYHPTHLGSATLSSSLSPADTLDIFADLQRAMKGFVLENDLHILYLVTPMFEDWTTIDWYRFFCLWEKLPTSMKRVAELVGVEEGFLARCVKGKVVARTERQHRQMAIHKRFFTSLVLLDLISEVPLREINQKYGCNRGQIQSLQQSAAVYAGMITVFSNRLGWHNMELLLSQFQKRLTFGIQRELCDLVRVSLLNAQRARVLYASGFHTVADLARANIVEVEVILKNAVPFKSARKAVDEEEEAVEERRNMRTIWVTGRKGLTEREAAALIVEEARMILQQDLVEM

Chain of PARP1 (P09874 whole entry): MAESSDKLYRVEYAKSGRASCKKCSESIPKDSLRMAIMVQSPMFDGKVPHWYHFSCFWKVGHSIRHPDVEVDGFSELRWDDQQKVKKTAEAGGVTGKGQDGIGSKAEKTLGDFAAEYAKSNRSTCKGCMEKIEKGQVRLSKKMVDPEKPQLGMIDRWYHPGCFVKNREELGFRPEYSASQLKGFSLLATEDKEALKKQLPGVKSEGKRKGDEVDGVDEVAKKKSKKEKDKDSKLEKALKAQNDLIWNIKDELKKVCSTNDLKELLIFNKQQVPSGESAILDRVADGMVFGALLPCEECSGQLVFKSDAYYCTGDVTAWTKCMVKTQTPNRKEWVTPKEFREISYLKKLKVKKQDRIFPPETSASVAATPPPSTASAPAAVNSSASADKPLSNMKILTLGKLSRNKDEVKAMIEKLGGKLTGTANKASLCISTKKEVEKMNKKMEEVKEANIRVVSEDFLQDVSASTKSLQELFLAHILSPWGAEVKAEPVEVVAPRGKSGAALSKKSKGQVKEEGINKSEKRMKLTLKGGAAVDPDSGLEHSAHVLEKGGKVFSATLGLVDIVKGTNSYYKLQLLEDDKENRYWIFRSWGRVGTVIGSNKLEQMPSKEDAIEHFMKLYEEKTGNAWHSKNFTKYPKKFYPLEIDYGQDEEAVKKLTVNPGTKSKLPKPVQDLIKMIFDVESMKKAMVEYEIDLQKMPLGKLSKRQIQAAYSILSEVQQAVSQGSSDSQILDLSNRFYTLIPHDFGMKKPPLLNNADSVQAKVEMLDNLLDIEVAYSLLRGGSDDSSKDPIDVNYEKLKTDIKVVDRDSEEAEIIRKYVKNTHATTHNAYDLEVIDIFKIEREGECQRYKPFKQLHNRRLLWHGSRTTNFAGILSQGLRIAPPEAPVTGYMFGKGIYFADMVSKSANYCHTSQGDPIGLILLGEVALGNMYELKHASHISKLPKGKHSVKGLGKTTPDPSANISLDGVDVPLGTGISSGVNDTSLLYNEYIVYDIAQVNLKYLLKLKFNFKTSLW

TTTTTTTTTTTTTTTTTTTTTTTTTTTTT (ssDNA) [RP316-Cy3]
binding result [1]: no binding
binding result [2]: binds
